This is an account of results in the Immune Epitope Database (IEDB).

The term Kd denotes a measure of binding affinity in units of concentration. The term IC50 denotes the concentration that inhibits the measured activity by half. Lower therefore signals greater potency in that assay.

One assay concerns the target HLA-A*02:03. Put plainly: IEDB peptide-MHC binding, purified MHC/competitive/radioactivity; filed as Kd, often an IC50 or EC50 that approximates it; ≥ and ≤ were set here for values at or beyond the usual limits of such assays.
A further assay has as its target HLA-A*02:02. The assay is described as above.
A further assay deals with HLA-A*02:06. Described as above.
For the next assay, the target named is HLA-A*02:01. The assay is described as follows: IEDB peptide-MHC binding, purified MHC/competitive/fluorescence; ≥ and ≤ were set here for values at or beyond the usual limits of such assays. The note with it: source organism: Zaire ebolavirus.
Another assay deals with HLA-A*33:01. The assay is described as follows: IEDB peptide-MHC binding, purified MHC/competitive/radioactivity; filed as Kd, often an IC50 or EC50 that approximates it; ≥ and ≤ were set here for values at or beyond the usual limits of such assays. The following applies: source organism: Vaccinia virus WR.
In a further assay the target is HLA-A*03:01. The assay is described as above. The note with it: source organism: Vaccinia virus WR.
The next assay deals with HLA-A*68:01. Described as above. The note with it: source organism: Vaccinia virus WR.
Another assay has as its target HLA-A*31:01. The assay is described as above. The following applies: source organism: Vaccinia virus WR.
A further assay deals with HLA-A*11:01. The description is as above. The note with it: source organism: Vaccinia virus WR.
Where [1] appears, read: source organism: Vaccinia virus WR.
Where [2] appears, read: source organism: SARS coronavirus Tor2.
Where [3] appears, read: source organism: Lymphocytic choriomeningitis virus (strain Armstrong).
The mark [4] stands for this setting: source organism: Dengue virus 2 Jamaica/1409/1983.

In the case of KLALITVSGL, the Kd with HLA-A*02:03 (source organism: Dengue virus 4 Philippines/H241/1956) is 7.32 nM.

Regarding IAGLKIEEI, the Kd was 7660 nM in the assay with HLA-A*02:02 (setting [1]), 6090 nM with HLA-A*02:03 (setting [1]) and 1970 nM with HLA-A*02:06 (setting [1]).

With SLVITYCLVT, the results for the Kd in the assay with HLA-A*02:02 (setting [1]), in the assay with HLA-A*02:03 (setting [1]) and with HLA-A*02:06 (setting [1]) were 286 nM, 566 nM and 824 nM, respectively.

As to NTCKPTILAT, the results for the Kd with HLA-A*02:02 (setting [1]), with HLA-A*02:03 (setting [1]) and with HLA-A*02:06 (setting [1]) were 460 nM, 248 nM and 3920 nM, respectively.

As for FLAHLQWFA, the Kd in the assay with HLA-A*02:02 (setting [2]) came out at 0.104 nM; in the assay with HLA-A*02:03 (setting [2]) it was 0.207 nM; with HLA-A*02:06 (setting [2]) it was 0.574 nM.

As to FVVFLLVTL, the values for the Kd with HLA-A*02:02 (setting [2]), with HLA-A*02:03 (setting [2]) and in the assay with HLA-A*02:06 (setting [2]) were 217 nM, 1640 nM and 37.7 nM, respectively.

Regarding TVLTSVDIET, the Kd came to 1720 nM in the assay with HLA-A*02:02 (setting [1]), 915 nM with HLA-A*02:03 (setting [1]) and 961 nM in the assay with HLA-A*02:06 (setting [1]).

SIMSMMNIT: the results for the Kd with HLA-A*02:02 (setting [1]), with HLA-A*02:03 (setting [1]) and with HLA-A*02:06 (setting [1]) were 4970 nM, 681 nM and 1760 nM, respectively.

In the case of AQFLYLYAL, the results for the Kd in the assay with HLA-A*02:02 (setting [2]), in the assay with HLA-A*02:03 (setting [2]) and in the assay with HLA-A*02:06 (setting [2]) were 0.92 nM, 6.23 nM and 0.346 nM, respectively.

In the case of NETEYLFEV, the IC50 in the assay with HLA-A*02:01 turned out to be 43.6 µM.

For STDQDTMLFA, the figures for the Kd with HLA-A*02:02 (setting [1]), in the assay with HLA-A*02:03 (setting [1]) and in the assay with HLA-A*02:06 (setting [1]) were 646 nM, 4700 nM and 2020 nM, respectively.

In turn, RLEELLPAV yielded an IC50 in the assay with HLA-A*02:01 of 1.85 µM.

For SVNASKTINA, the results for the Kd with HLA-A*02:02 (setting [1]), with HLA-A*02:03 (setting [1]) and with HLA-A*02:06 (setting [1]) were 17300 nM, 731 nM and ≥ 28800 nM, respectively.

IVSKCIVQSV: the values for the Kd with HLA-A*02:02 (setting [1]), with HLA-A*02:03 (setting [1]) and with HLA-A*02:06 (setting [1]) were 123 nM, 30.8 nM and 552 nM, respectively.

As for DIMTSTRTI, the Kd is 3450 nM in the assay with HLA-A*02:02 (setting [1]), 78.6 nM in the assay with HLA-A*02:03 (setting [1]) and ≥ 21800 nM with HLA-A*02:06 (setting [1]).

Consider LLPLTSLVIT, for which the Kd is 999 nM in the assay with HLA-A*02:02 (setting [1]), 1320 nM with HLA-A*02:03 (setting [1]) and 1610 nM with HLA-A*02:06 (setting [1]).

DTCGASINIT: the results for the Kd with HLA-A*02:02 (setting [1]), in the assay with HLA-A*02:03 (setting [1]) and with HLA-A*02:06 (setting [1]) were ≥ 23600 nM, ≥ 70400 nM and ≥ 69800 nM, respectively.

Take LITLILSNKL: the Kd with HLA-A*02:02 (setting [1]) was 225 nM; in the assay with HLA-A*02:03 (setting [1]), 293 nM; with HLA-A*02:06 (setting [1]), 633 nM.

Regarding VISTIANSNI, the Kd with HLA-A*02:02 (setting [1]) is 282 nM; with HLA-A*02:03 (setting [1]) it was 845 nM; with HLA-A*02:06 (setting [1]), 5160 nM.

Take ALMDLLMFS: the Kd amounted to 0.936 nM with HLA-A*02:02 (setting [3]), 103 nM with HLA-A*02:03 (setting [3]) and 13.8 nM in the assay with HLA-A*02:06 (setting [3]).

LTSVDIETAI: the figures for the Kd in the assay with HLA-A*02:02 (setting [1]), in the assay with HLA-A*02:03 (setting [1]) and with HLA-A*02:06 (setting [1]) were 509 nM, 2150 nM and 3130 nM, respectively.

As for ALTDVEKRI, the Kd in the assay with HLA-A*02:02 (setting [1]) is 74.2 nM; with HLA-A*02:03 (setting [1]), 1490 nM; in the assay with HLA-A*02:06 (setting [1]), 14400 nM.

In the case of MAFILGIII, the figures for the Kd in the assay with HLA-A*02:02 (setting [1]), in the assay with HLA-A*02:03 (setting [1]) and with HLA-A*02:06 (setting [1]) were 9530 nM, 9760 nM and ≥ 32500 nM, respectively.

As to IVPDADPPI, the Kd was 5080 nM in the assay with HLA-A*02:02 (setting [1]), 10700 nM with HLA-A*02:03 (setting [1]) and 274 nM with HLA-A*02:06 (setting [1]).

On to ELAAHQKKI, for which, in the assay with HLA-A*02:03 (source organism: Homo sapiens), the Kd was 2650 nM.

ILPDKIDGL: the Kd was found to be 1.04 nM with HLA-A*02:02 (setting [1]), 3.45 nM in the assay with HLA-A*02:03 (setting [1]) and 43.1 nM with HLA-A*02:06 (setting [1]).

For the sequence RVILAGPMPV, the figures for the Kd with HLA-A*02:03 (setting [4]) and with HLA-A*02:06 (setting [4]) were 7.76 nM and 31.9 nM, respectively.

Consider GLRQQLEDI, for which the figures for the Kd in the assay with HLA-A*02:02 (setting [1]), with HLA-A*02:03 (setting [1]) and with HLA-A*02:06 (setting [1]) were 43 nM, 4.72 nM and 4310 nM, respectively.

On to LIFNVKSKLL, for which the Kd is 2390 nM in the assay with HLA-A*02:02 (setting [1]), 6690 nM with HLA-A*02:03 (setting [1]) and ≥ 28500 nM with HLA-A*02:06 (setting [1]).

Consider DVLEIINDK, for which the Kd with HLA-A*33:01 is 719 nM; with HLA-A*03:01, ≥ 53.5 µM; in the assay with HLA-A*68:01, 720 nM; in the assay with HLA-A*31:01, ≥ 53300 nM; in the assay with HLA-A*11:01, 4580 nM.

For MLFTKFFYL, the figures for the Kd with HLA-A*02:02 (setting [2]), with HLA-A*02:03 (setting [2]) and in the assay with HLA-A*02:06 (setting [2]) were 0.0849 nM, 17.2 nM and 1.43 nM, respectively.

As for SILDRIDTR, the Kd is 113 nM with HLA-A*33:01; ≥ 78 µM with HLA-A*03:01; 189 nM with HLA-A*68:01; 71 nM in the assay with HLA-A*31:01; 499 nM in the assay with HLA-A*11:01.

With LLLEWLAEV, the figures for the Kd with HLA-A*02:02 (setting [2]), with HLA-A*02:03 (setting [2]) and with HLA-A*02:06 (setting [2]) were 0.114 nM, 0.627 nM and 0.105 nM, respectively.

In the case of NTLISSDGA, the Kd is 7410 nM with HLA-A*02:02 (setting [1]), 3570 nM in the assay with HLA-A*02:03 (setting [1]) and ≥ 49400 nM in the assay with HLA-A*02:06 (setting [1]).
